Experimental data taken from paper PMC11005340.

What was measured:
[1] = molecular target: HIV-1AD8 Env N332E (HIV-1 (strain AD8))
[2] = molecular target: HIV-1AD8 Env N332L (HIV-1 (strain AD8))
[3] = molecular target: HIV-1AD8 Env N332Y (HIV-1 (strain AD8))

Measured: neutralisation of pseudovirus infection of Cf2-Th/CD4+CCR5+ cells, IC50 (one of the three changes with the highest resistance to PGT121)

PGT121 (antibody)
< 1 µg/mL: all assays above
